Measurements as given in the RNAGym collection of RNA variant scans (doi:10.7554/elife.80360).

B1: Hairpin Ribozyme (parent)
chain: GUCCUCUUUCACGUGCGCGUGAAAGAGAGAAGUGAACCAGAGAAACACACGUUGUGGUAUAUUACCUGGUA

Variants of: B1
Assay: self-cleavage, relative activity (ratio to wild type); higher = more cleavage; co-transcriptional

| Variant | self-cleavage |
| --- | --- |
| G21C C66G | 0.159 |
| G21C G25A | 0.165 |
| G21C G25U | 0.399 |
| G21C G27A | 0.186 |
| G21C G29U | 0.316 |
| G21C G32A | 0.141 |
| G21C G32U | 0.0815 |
| G21C G57U | 0.189 |
| G21C G68U | 0.289 |
| G21C G69A | 0.419 |
| G21C U52A | 0.909 |
| G21C U52C | 0.971 |
| G21C U53A | 0.671 |
| G21C U58G | 0.647 |
| G21C U60G | 0.55 |
| G21C U63A | 0.0855 |
| G21C U63G | 0.191 |
| G21C U70G | 0.658 |
| G21U A22C | 0.763 |
| G21U A22G | 0.736 |
| G21U A23C | 0.595 |
| G21U A24U | 0.78 |
| G21U A26C | 0.123 |
| G21U A30C | 0.232 |

| Variant | self-cleavage |
| --- | --- |
| G21U A31C | 0.0844 |
| G21U A31G | 0.325 |
| G21U A35C | 0.841 |
| G21U A35U | 0.626 |
| G21U A36C | 0.463 |
| G21U A36G | 1.07 |
| G21U A36U | 0.661 |
| G21U A39U | 0.293 |
| G21U A41C | 1.12 |
| G21U A41U | 1.24 |
| G21U A44U | 0.165 |
| G21U A47U | 0.123 |
| G21U A49C | 0.219 |
| G21U A61U | 0.202 |
| G21U A64C | 0.149 |
| G21U C37U | 0.373 |
| G21U C38G | 0.167 |
| G21U C38U | 0.357 |
| G21U C46A | 0.0942 |
| G21U C46U | 0.128 |
| G21U C50A | 0.194 |
| G21U C65A | 0.996 |
| G21U C66U | 0.427 |
| G21U G27C | 0.172 |

| Variant | self-cleavage |
| --- | --- |
| G21U G32U | 0.1 |
| G21U G34U | 1.24 |
| G21U G40A | 0.309 |
| G21U G40U | 0.147 |
| G21U G51U | 0.992 |
| G21U G56C | 0.116 |
| G21U G57A | 0.148 |
| G21U G57U | 0.224 |
| G21U G69A | 0.374 |
| G21U G69C | 0.293 |
| G21U G69U | 0.211 |
| G21U U33C | 0.192 |
| G21U U52A | 0.806 |
| G21U U52C | 0.764 |
| G21U U53C | 0.85 |
| G21U U53G | 0.907 |
| G21U U58A | 0.493 |
| G21U U60A | 0.851 |
| G21U U60G | 0.48 |
| G21U U62G | 0.156 |
| G21U U63A | 0.105 |
| G21U U67C | 0.23 |
| A22C A24U | 0.485 |
| A22C A26U | 0.429 |

| Variant | self-cleavage |
| --- | --- |
| A22C A28C | 0.386 |
| A22C A28U | 0.504 |
| A22C A30G | 0.179 |
| A22C A30U | 0.0473 |
| A22C A36C | 0.559 |
| A22C A36U | 0.581 |
| A22C A39C | 0.539 |
| A22C A39G | 0.362 |
| A22C A41C | 1.22 |
| A22C A43U | 0.15 |
| A22C A44C | 0.0803 |
| A22C A45C | 0.128 |
| A22C A45U | 0.108 |
| A22C A47C | 0.24 |
| A22C A47G | 0.187 |
| A22C A47U | 0.208 |
| A22C A49C | 0.264 |
| A22C A61G | 0.123 |
| A22C A64C | 0.101 |
| A22C A64U | 0.251 |
| A22C A71G | 0.945 |
| A22C A71U | 0.685 |
| A22C C46G | 0.187 |
| A22C C46U | 0.141 |

| Variant | self-cleavage |
| --- | --- |
| A22C C66G | 0.0576 |
| A22C G25C | 0.182 |
| A22C G25U | 0.17 |
| A22C G27U | 0.411 |
| A22C G32A | 0.178 |
| A22C G32C | 0.106 |
| A22C G32U | 0.107 |
| A22C G34A | 1.04 |
| A22C G34C | 1.22 |
| A22C G34U | 1.49 |
| A22C G40U | 0.19 |
| A22C G42C | 0.291 |
| A22C G54C | 0.317 |
| A22C G57A | 0.119 |
| A22C G68C | 0.247 |
| A22C G69A | 0.448 |
| A22C G69U | 0.152 |
| A22C U58A | 0.68 |
| A22C U63C | 0.203 |
| A22C U70G | 0.763 |
| A22G A24C | 0.705 |
| A22G A26U | 0.528 |
| A22G A28G | 0.735 |
| A22G A31U | 0.226 |

| Variant | self-cleavage |
| --- | --- |
| A22G A41G | 0.811 |
| A22G A44G | 0.193 |
| A22G A44U | 0.123 |
| A22G A45G | 0.115 |
| A22G A45U | 0.268 |
| A22G A47C | 0.27 |
| A22G A59C | 0.122 |
| A22G A64U | 0.173 |
| A22G A71C | 1.28 |
| A22G C37G | 0.291 |
| A22G C38G | 0.185 |
| A22G C38U | 0.589 |
| A22G C46A | 0.171 |
| A22G C48A | 0.16 |
| A22G C48G | 0.136 |
| A22G C65U | 0.395 |
| A22G C66A | 0.172 |
| A22G C66U | 0.453 |
| A22G G25C | 0.547 |
| A22G G29C | 0.129 |
| A22G G32C | 0.0859 |
| A22G G40A | 0.272 |
| A22G G40C | 0.146 |
| A22G G51C | 0.745 |

| Variant | self-cleavage |
| --- | --- |
| A22G G54A | 0.428 |
| A22G G68A | 0.307 |
| A22G G68C | 0.182 |
| A22G G68U | 0.362 |
| A22G G69C | 0.209 |
| A22G U33A | 0.115 |
| A22G U33C | 0.192 |
| A22G U53C | 0.817 |
| A22G U55A | 0.318 |
| A22G U60C | 0.899 |
| A22G U60G | 0.416 |
| A22G U62A | 0.189 |
| A22G U62G | 0.122 |
| A22G U63C | 0.245 |
| A22G U67A | 0.239 |
| A22G U67C | 0.231 |
| A22G U67G | 0.247 |
| A22U A23U | 0.842 |
| A22U A24G | 0.76 |
| A22U A26G | 0.743 |
| A22U A28G | 1.13 |
| A22U A30G | 0.159 |
| A22U A31G | 0.589 |
